T1: MHC class II I-A^b molecules purified by affinity chromatography (;mouse, UniProt P14434 24-218; P14483 28-226)
T1 MHC II alpha: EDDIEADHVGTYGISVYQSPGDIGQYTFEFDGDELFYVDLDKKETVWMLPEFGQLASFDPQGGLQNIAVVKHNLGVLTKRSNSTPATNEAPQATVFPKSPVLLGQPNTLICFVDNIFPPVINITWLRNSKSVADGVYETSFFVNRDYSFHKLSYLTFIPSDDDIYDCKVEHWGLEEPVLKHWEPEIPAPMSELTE
T1 MHC II beta: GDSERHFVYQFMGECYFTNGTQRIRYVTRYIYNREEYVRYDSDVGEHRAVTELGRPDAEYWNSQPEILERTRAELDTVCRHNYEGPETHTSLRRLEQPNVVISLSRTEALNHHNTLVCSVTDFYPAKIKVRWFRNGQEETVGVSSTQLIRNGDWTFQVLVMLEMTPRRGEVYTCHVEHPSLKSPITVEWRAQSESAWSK


Target: T1, MHC class II I-A^b molecules purified …
Experiment: competitive peptide binding assay on purified I-Ab

| Binder | IC50 |
| --- | --- |
| LYLVTPPSVVGGLGVT [AQP4 p133-149] | 184 nM |
| HLFAINYTGASMNPARSFGP [AQP4 201-220] | 28 nM |
| GILYLVTPPSVVGGLGVTMV [AQP4 131-150] | 112 nM |
| VAFKGVWTQAFW [AQP4 p24-35] | 4880 nM |
| LFAINYTGASMNPARSF [AQP4 p202-218] | 16 nM |

Reference: patent US20250052751A1 (published 2025)
